From patent US20260265403A1 (TJ BIOPHARMA SHANGHAI, published 2026) come the findings set out here.

The labels stand for the following.
T1: human CD24 on cells (human, UniProt P25063 27-59)
T1 chain (looked up): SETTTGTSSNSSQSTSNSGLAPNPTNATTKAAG

B1: 59-G9D7, IgG4, Kappa (antibody, V domains shown)
VH: QVQLQQPGADLVKPGASVKLSCKASGYTVTTYWMHWVRQRPGRGLEWIGRIDPNSGETKYSEKFKNKATLTVDRPSSTAYMQLSSLTFEDSAVYFCAIYYYLNNFLFDYWGQGTTLTVSS
VL: ENVLTQSPAIMSASPGEKVTMTCRASSSVSSSYLHWYQKKSGASPKLWIYSTSNLASGVPARFSGSGSGTSYSLTISSVEAEDAATYYCQQYSGYPLTFGAGTKLELK
B2: 62-F7E9, IgG4, Kappa (antibody, V domains shown)
VH: QVQLQQPGAELVKPGASVKLSCKASGYTSTSYWLHWVKQRPGRGLEWIGRIDPNSGETKFNEKFKSQATLTVDKPSSTAYMQLNSLTSEDSAVYYCALYYYGSILFDYWGQGTTLTVSS
VL: B1 VL with A25T, S28I, V29I, S32G, Y33F, K39Q, Y95H
B3: 67-H2E7, IgG1, Kappa (antibody, V domains shown)
VH: EVQLQQSGPELVKPGASVKISCKASGYEFTGYHMNWVKQSPEKSLEWIGEINPITSDKTFNQKFKAKATLTVDRSSTTAYMHLKSLTSEDSAVYYCARRDYDTSLDYWGQGTTLTVSS
VL: DVQITQSPSYLAASPGETITIYCRASKSISKYLAWYQEKPEKTNRLLIYAGSTLQSGIPSRFRGSGSGKDFTLTVSGLEPEDFAMYYCQQHNEYPLTFGAGTKLDLK
B4: 79-E3H3, IgG1, Kappa (antibody, V domains shown)
VH: B3 VH with T77S
VL: B3 VL with D105E
B5: 67-H2E7, IgG4, Kappa (antibody, V domains shown)
VH: B3 VH
VL: B3 VL
B6: 85-D5A10 (4434), IgG1, Kappa (antibody, V domains shown)
VH: B3 VH with T77S, E89D, D102G
VL: B3 VL with N44I, L96I, D105E, K107I
B7: 89-E8C12 (4428), IgG1, Kappa (antibody, V domains shown)
VH: B3 VH with E28D, H33Y, V37M, D57H, K58N, T77S, D102G
VL: B3 VL with N44I, K69T, D105E
B8: 79-E3H3, IgG4, Kappa (antibody, V domains shown)
VH: B3 VH with T77S
VL: B3 VL with D105E
B9: 76-F8C6, IgG4, Kappa (antibody, V domains shown)
VH: EVKLEESGGGLVQPGGSMKLSCVASGFTFTNSWMNWVRQSPERGLDWVAQIQLKSDNYATRYVESVKGRFTISRDDSKNSVYLQMNNLRAEDTGIYYCTTGTDYWSQGTTLTVSS
VL: not shown
B10: 66-D1B10, IgG4, Kappa (antibody, V domains shown)
VH: B9 VH with K3R, L11F, F27L, T30P, S32H, D46A, K78E, N79S, S80T, S106G
VL: not shown
B11: 45-H1E4, IgG4, Kappa (antibody, V domains shown)
VH: QIQLVQSGPELKKPGETVKISCKASGYTFTTYGMSWMKQAPGKGLKWMGWINTYSGVPAYADDFKGRFAFSLDTSASTAYLQINNLKNEDTATYFCARSGYPWSPHSYSTDYWGQGISVTVSS
VL: DVLLTQTPLSLPVSLGDQASISCKSSQSIVHSNGNTYLEWYLQKPGQSPKRLIYKVSNRFSGVPDRFSGSGSGTDFTLKISRVEAEDLGVYYCFQGSHVPWTFGGGTKLEIK
B12: 80-F10A6, IgG1, Kappa (antibody, V domains shown)
VH: EVQLQQSGPVLVNPGASVKISCKASGYSFTGYYMNWVKQSPEKSLEWIGEVNPITGDTTYSQNFKAKTTLTVDRSSSTAYMQLKSLTSEDSAVYYCTRRDYGTSLDYWGQGTTLTVSS
VL: DVQITQSPSYLAASPGETITIHCRASKSISRYLAWYQEKPGKINTLLIYAGSTLHLGIPSRFSGSGSGTDFTLTISSLELEDFAMYYCQQHNEYPITFGAGTKLELK
B13: 90-D11B6, IgG4, Kappa (antibody, V domains shown)
VH: EVQLQQSGPELVKPGASVRISCKASGYSFTGYYMNWVKQSPEKNLEWIGEINPITGGSTYNQKFVAKATLTVDRSSSTAYMQLKSLTSEDSAVYYCTRRDYDTSLDYWGQGTTLTVSS
VL: B12 VL with H22N, R31K, I43T, N44I, T45K, H55Q, L56S, S67Y, L80P, I96L
B14: 90-D11B6, IgG1, Kappa (antibody, V domains shown)
VH: B13 VH
VL: B12 VL with H22N, R31K, I43T, N44I, T45K, H55Q, L56S, S67Y, L80P, I96L
B15: 63-B10B9, IgG4, Kappa (antibody, V domains shown)
VH: B13 VH with R19K, N44S, S58T, V65R, R98K, T115I
VL: DVQITQSPSYLAAFPGETITINCRASKSIKKYLAWYQEKPGKTNNLLIYSGSTLQSGIPSRFSGSGTGTDFTLTISSLEPEDFAMYYCQQHNEYPLTFGAGTKLELK
B16: 63-B10B9, IgG1, Kappa (antibody, V domains shown)
VH: B13 VH with R19K, N44S, S58T, V65R, R98K, T115I
VL: B15 VL
B17: 75-H8B9, IgG4, Kappa (antibody, V domains shown)
VH: EVNLEESGGGLVQPGGSRQLSCVASGLTFSKHWMNWVRQSPDKGLEWVAQIQLKSDNYAIRYVDSVKGRFTISRDDSENTVYLQMNNLRAEDTGIYYCTTGTDYWGQGTTLTVSS
VL: not shown
B18: 75-H8B9, IgG1, Kappa (antibody, V domains shown)
VH: B17 VH
VL: not shown
B19: 70-F4E5, IgG4, Kappa (antibody, V domains shown)
VH: B17 VH
VL: not shown
B20: 70-F4E5, IgG1, Kappa (antibody, V domains shown)
VH: B17 VH
VL: not shown

Where a chain is given by its changes, count along the chain named.

This test has as its target T1, human CD24 on cells. As to the kind of experiment: cell-based or functional assay.
Consider B1, for which the “EC50 of Phagocytosis assay, IgG4, Kappa; HEK293-CD24” value (shortened to “EC50 … IgG4, Kappa; HEK293-CD24”) worked out at 2.08 µg/mL; the “EC50 of Phagocytosis assay, IgG4, Kappa; MCF-7” value (shortened to “EC50 … IgG4, Kappa; MCF-7”) amounted to 0.19 µg/mL; the “EC50 of Phagocytosis assay, IgG4, Kappa; NALM6” value (“EC50 … IgG4, Kappa; NALM6” for short) was found to be 6.57 µg/mL; the “EC50 of Phagocytosis assay, IgG4, Kappa; OVCAR3” value (“EC50 … IgG4, Kappa; OVCAR3” below) amounted to 1.26 µg/mL.
In the same order, the values of B2 are 10.5 µg/mL, 0.21 µg/mL, 0.01 µg/mL and 1.41 µg/mL.
Take B3: the “EC50 of Phagocytosis assay, IgG1, Kappa; HEK293-CD24” value (“EC50 … IgG1, Kappa; HEK293-CD24” below) came to 0.42 µg/mL; the “EC50 of Phagocytosis assay, IgG1, Kappa; MCF-7” value (“EC50 … IgG1, Kappa; MCF-7” for short) was found to be 0.45 µg/mL; the “EC50 of Phagocytosis assay, IgG1, Kappa; NALM6” value (“EC50 … IgG1, Kappa; NALM6” below) was 0.22 µg/mL; the “EC50 of Phagocytosis assay, IgG1, Kappa; OVCAR3” value (shortened to “EC50 … IgG1, Kappa; OVCAR3”) stood at 8.46 µg/mL.
In the same order, the values of B4 are 0.19 µg/mL, 0.52 µg/mL, 0.49 µg/mL and 0.44 µg/mL.
B5: the “EC50 … IgG4, Kappa; HEK293-CD24” value worked out at 0.51 µg/mL; the “EC50 … IgG4, Kappa; MCF-7” value came out at 1.28 µg/mL; the “EC50 … IgG4, Kappa; NALM6” value stood at 0.68 µg/mL; the “EC50 … IgG4, Kappa; OVCAR3” value stood at 0.71 µg/mL.
Turning to B6, the “EC50 … IgG1, Kappa; HEK293-CD24” value is 6.76 µg/mL; the “EC50 … IgG1, Kappa; MCF-7” value amounted to 0.42 µg/mL; the “EC50 … IgG1, Kappa; NALM6” value came out at 0.32 µg/mL; the “EC50 … IgG1, Kappa; OVCAR3” value is 0.13 µg/mL.
The matching figures for B7: 0.2 µg/mL, 0.33 µg/mL, 0.23 µg/mL and 0.15 µg/mL.
Regarding B8, the “EC50 … IgG4, Kappa; HEK293-CD24” value turned out to be 0.58 µg/mL; the “EC50 … IgG4, Kappa; MCF-7” value is 1.42 µg/mL; the “EC50 … IgG4, Kappa; NALM6” value turned out to be 0.72 µg/mL; the “EC50 … IgG4, Kappa; OVCAR3” value was found to be 0.42 µg/mL.
With B9, the “EC50 … IgG4, Kappa; HEK293-CD24” value is 0.4 µg/mL; the “EC50 … IgG4, Kappa; MCF-7” value amounted to 2.44 µg/mL; the “EC50 … IgG4, Kappa; NALM6” value worked out at 1.62 µg/mL; the “EC50 … IgG4, Kappa; OVCAR3” value came to 0.27 µg/mL.
In the same order, the values of B10 are 3.09 µg/mL, 2.26 µg/mL, 6.28 µg/mL and 5.77 µg/mL.
As to B11, the “EC50 … IgG4, Kappa; HEK293-CD24” value is 0.9 µg/mL; the “EC50 … IgG4, Kappa; MCF-7” value worked out at 7 µg/mL; the “EC50 … IgG4, Kappa; NALM6” value worked out at 5.36 µg/mL; the “EC50 … IgG4, Kappa; OVCAR3” value was 3.35 µg/mL.
For the molecule B12, the “EC50 … IgG1, Kappa; HEK293-CD24” value was found to be 0.39 µg/mL; the “EC50 … IgG1, Kappa; MCF-7” value came out at 0.57 µg/mL; the “EC50 … IgG1, Kappa; NALM6” value was found to be 0.46 µg/mL; the “EC50 … IgG1, Kappa; OVCAR3” value turned out to be 2.23 µg/mL.
As for B13, the “EC50 … IgG4, Kappa; HEK293-CD24” value amounted to 2.78 µg/mL; the “EC50 … IgG4, Kappa; MCF-7” value worked out at 1.94 µg/mL; the “EC50 … IgG4, Kappa; NALM6” value was determined as 1.31 µg/mL; the “EC50 … IgG4, Kappa; OVCAR3” value was 0.86 µg/mL.
As to B14, the “EC50 … IgG1, Kappa; HEK293-CD24” value amounted to 1.31 µg/mL; the “EC50 … IgG1, Kappa; MCF-7” value amounted to 1 µg/mL; the “EC50 … IgG1, Kappa; NALM6” value worked out at 1.19 µg/mL; the “EC50 … IgG1, Kappa; OVCAR3” value worked out at 0.59 µg/mL.
For the molecule B15, the “EC50 … IgG4, Kappa; HEK293-CD24” value stood at 1.14 µg/mL; the “EC50 … IgG4, Kappa; MCF-7” value came out at 17.1 µg/mL; the “EC50 … IgG4, Kappa; NALM6” value stood at 6.16 µg/mL; the “EC50 … IgG4, Kappa; OVCAR3” value came to 9.85 µg/mL.
With B16, the “EC50 … IgG1, Kappa; HEK293-CD24” value worked out at 7.02 µg/mL; the “EC50 … IgG1, Kappa; MCF-7” value stood at 1.06 µg/mL; the “EC50 … IgG1, Kappa; NALM6” value was found to be 1.91 µg/mL; the “EC50 … IgG1, Kappa; OVCAR3” value was determined as 0.56 µg/mL.
In the case of B17, the “EC50 … IgG4, Kappa; HEK293-CD24” value is 0.4 µg/mL; the “EC50 … IgG4, Kappa; MCF-7” value amounted to 0.76 µg/mL; the “EC50 … IgG4, Kappa; NALM6” value is 0.84 µg/mL; the “EC50 … IgG4, Kappa; OVCAR3” value is 0.24 µg/mL.
Take B18: the “EC50 … IgG1, Kappa; HEK293-CD24” value is 0.08 µg/mL; the “EC50 … IgG1, Kappa; MCF-7” value amounted to 0.44 µg/mL; the “EC50 … IgG1, Kappa; NALM6” value stood at 1.16 µg/mL; the “EC50 … IgG1, Kappa; OVCAR3” value was found to be 0.14 µg/mL.
Regarding B19, the “EC50 … IgG4, Kappa; HEK293-CD24” value worked out at 0.21 µg/mL; the “EC50 … IgG4, Kappa; MCF-7” value turned out to be 0.84 µg/mL; the “EC50 … IgG4, Kappa; NALM6” value amounted to 0.63 µg/mL; the “EC50 … IgG4, Kappa; OVCAR3” value was determined as 5.61 µg/mL.
As to B20, the “EC50 … IgG1, Kappa; HEK293-CD24” value worked out at 0.04 µg/mL; the “EC50 … IgG1, Kappa; MCF-7” value amounted to 0.7 µg/mL; the “EC50 … IgG1, Kappa; NALM6” value came to 0.61 µg/mL; the “EC50 … IgG1, Kappa; OVCAR3” value was found to be 0.15 µg/mL.
